Data on 79 sequences can be found in the supplement of paper PMC10126150.

For this data set, the system named is ATP. The experiment in a line: switch fluorescence ratio, 500 uM ATP over buffer (Cy3 cluster intensity, sum of 5 cycles each) (fold (ratio)); higher = stronger signal-on switching upon ATP binding; sequences stand for … in TCGTCGGCAGCGTCAGATGTGTATAAGAGACAGTTTTTTTTTTTTTTTTTTTTTTTTT…TC. Conditions: aptamer strand: ATP DNA aptamer (quencher-CACCTGGGGGAGTATTGCGGAGGAAGG + anchor), 100 nM annealed; ATP concentration: 500 uM. In outline: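 The quencher-labelled ATP aptamer, at 100 nM, was annealed to Cy3-labelled switching-strand clusters on a modified Illumina MiSeq flow-cell. The clusters were imaged in selection buffer, then after 15 min with 500 uM ATP at 22 °C, and this buffer/ATP cycle ran five times with NaOH stripping and re-annealing between runs. Per-cluster fluorescence ratios, summed target-cycle over summed buffer-cycle Cy3 intensity, were averaged per switch-domain sequence. Clusters outside 100-1000 RFU were excluded.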

± gives the standard deviation of the averaged measurements.
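Note: ATP exposure 15 min at 22 °C before imaging.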

Take TTTGGGCGGG: the switch fluorescence ratio worked out at 1.01 ± 0.033.
With TTTGGGGACG the figure was 1.01 ± 0.019; with TTTGGGGAGC, 0.986 ± 0.045.
Take TTTGGGGCAG: the switch fluorescence ratio came to 1.06 ± 0.078.
TTTGGGGCGT: the switch fluorescence ratio came to 1 ± 0.035.
With TTTGGGGCT the figure was 0.957 ± 0.039; with TTTGGGGGAG, 1.01 ± 0.027; with TTTGGGGGGG, 1 ± 0.051.
Take TTTGGGGTAA: the switch fluorescence ratio worked out at 0.991 ± 0.029.
Consider TTTGGGGTGC, for which the switch fluorescence ratio was determined as 1.09 ± 0.12.
The figure for TTTGGGGTGT is 1.01 ± 0.06; for TTTGGGGTTC it is 1.02 ± 0.044; for TTTGGGTATG it is 0.992 ± 0.026.
Regarding TTTGGGTCTT, the switch fluorescence ratio worked out at 1.02 ± 0.013.
With TTTGGGTTCG the figure was 0.986 ± 0.019; with TTTGGGTTGG, 1.03 ± 0.13; with TTTGGTAAGT, 1.022 ± 0.01.
In the case of TTTGGTACTT, the switch fluorescence ratio amounted to 0.986 ± 0.039.
As for TTTGGTAGGG, the switch fluorescence ratio was found to be 1.02 ± 0.021.
On to TTTGGTGCTG, for which the switch fluorescence ratio is 0.983 ± 0.06.
Consider TTTGGTGGTA, for which the switch fluorescence ratio is 0.984 ± 0.03.
In the case of TTTGGTTCAG, the switch fluorescence ratio amounted to 0.994 ± 0.018.
TTTGGTTTGT: the switch fluorescence ratio came to 1.1 ± 0.19.
Regarding TTTGGTTTTG, the switch fluorescence ratio worked out at 0.995 ± 0.038.
TTTGTAAGCC: the switch fluorescence ratio is 1.06 ± 0.011.
The figure for TTTGTAAGTT is 0.995 ± 0.03; for TTTGTAATTG it is 1.008 ± 0.01.
With TTTGTAATTT the figure was 1.01 ± 0.021; with TTTGTAGACG, 1.04 ± 0.062.
The figure for TTTGTAGATC is 1.06 ± 0.066; for TTTGTAGGGT it is 0.971 ± 0.011.
Regarding TTTGTATTGC, the switch fluorescence ratio worked out at 1.01 ± 0.025.
The figure for TTTGTATTGT is 1.019 ± 0.0089; for TTTGTATTTA it is 1.03 ± 0.041; for TTTGTCAGGC it is 1.02 ± 0.053.
With TTTGTCATCG the figure was 1.03 ± 0.018; with TTTGTCCATG, 0.996 ± 0.055; with TTTGTCCCTT, 1.01 ± 0.041.
With TTTGTCCTTA the figure was 0.9932 ± 0.0017.
With TTTGTGAGAA, the switch fluorescence ratio came to 1.02 ± 0.0045.
With TTTGTGAGGG the figure was 0.982 ± 0.028.
With TTTGTGAGTT, the switch fluorescence ratio was 1.017 ± 0.0042.
With TTTGTGATGT, the switch fluorescence ratio was 1.02 ± 0.066.
For TTTGTGATTT, the switch fluorescence ratio is 1.11 ± 0.27.
On to TTTGTGCTC, for which the switch fluorescence ratio was determined as 1.13 ± 0.15.
With TTTGTGGCAG the figure was 0.991 ± 0.039; with TTTGTGGCGT, 0.984 ± 0.023.
With TTTGTGGCTT the figure was 1.38 ± 0.65.
In the case of TTTGTGTAAT, the switch fluorescence ratio worked out at 0.989 ± 0.038.
Turning to TTTGTGTCAA, the switch fluorescence ratio came out at 1.01 ± 0.04.
With TTTGTGTGTC the figure was 1 ± 0.025; with TTTGTGTTCA, 0.98763 ± 0.00075; with TTTGTTACGT, 1.04 ± 0.024.
Turning to TTTGTTAGAC, the switch fluorescence ratio came to 1.03 ± 0.022.
The figure for TTTGTTATGG is 1.02 ± 0.063.
With TTTGTTATGT, the switch fluorescence ratio is 0.988 ± 0.019.
The figure for TTTGTTATTG is 1.3 ± 0.44.
Turning to TTTGTTCCAG, the switch fluorescence ratio turned out to be 1.01 ± 0.06.
As to TTTGTTCTTT, the switch fluorescence ratio came to 1.02 ± 0.081.
With TTTGTTGCTG the figure was 1.03 ± 0.039; with TTTGTTGTAG, 0.985 ± 0.028; with TTTGTTGTCT, 0.995 ± 0.011.
Turning to TTTGTTTCTT, the switch fluorescence ratio was 0.977 ± 0.032.
Consider TTTGTTTGAA, for which the switch fluorescence ratio came out at 0.962 ± 0.023.
With TTTGTTTGAG the figure was 0.991 ± 0.037; with TTTGTTTGGC, 0.983 ± 0.019.
With TTTGTTTGTG the figure was 1 ± 0.014; with TTTTAAAATT, 1 ± 0.035; with TTTTAAACAT, 1.11 ± 0.09.
With TTTTAAAGA the figure was 0.982 ± 0.026; with TTTTAAAGTA, 1.01 ± 0.031.
As for TTTTAAAGTG, the switch fluorescence ratio was 0.993 ± 0.034.
TTTTAAAGTT: the switch fluorescence ratio is 0.968 ± 0.018.
The figure for TTTTAAATCT is 1.03 ± 0.019; for TTTTAAATTT it is 1.01 ± 0.11.
For TTTTAACGAA, the switch fluorescence ratio was determined as 1.01 ± 0.013.
Take TTTTAACGGC: the switch fluorescence ratio came to 0.971 ± 0.082.
Take TTTTAAGAAG: the switch fluorescence ratio came to 1.02 ± 0.018.
With TTTTAAGACG the figure was 0.979 ± 0.069.
